The values that follow come from US11732029B2, “Methods and compositions for the treatment of wounds” (The University of Chicago, priority 2017, dated 2023).

As usually defined, the Kd is the equilibrium constant for the complex coming apart.

Experiment [1] has as its target T1, VEGF-A165 (Homo sapiens, UniProt P15692).
T1 construct: All growth factors (GFs) and chemokines were purchased in their mature forms; purchased PeproTech; host or cells: Escherichia coli
T1 sequence (P15692 27-191 isoform P15692-4 limits assumed): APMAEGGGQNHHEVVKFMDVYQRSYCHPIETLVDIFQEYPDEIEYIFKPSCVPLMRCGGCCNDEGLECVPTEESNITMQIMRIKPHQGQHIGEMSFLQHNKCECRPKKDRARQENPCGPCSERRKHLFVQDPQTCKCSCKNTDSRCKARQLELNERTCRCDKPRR
In words: GF binding to recombinant laminin LG domain protein and synthesized laminin HBD peptides (ELISA). The settings on record: plate coated with LG domain protein or peptide, 1 μg/mL GF, vs BSA-coated wells. The protocol:
(§1) ELISA tests were performed as described above. In brief, ELISA plates were coated with 1 μg/mL of laminin alpha 3 LG domain recombinant protein, laminin alpha 4 LG domain recombinant protein (R&D systems), laminin alpha 5 LG domain recombinant protein (LD BioPharma), or laminin peptide (sequences are described in Table 1, chemically synthesized by Genscript) in PBS for 2 hrs at 37° C. 1 μg/mL of BSA served as non-binding protein control. After blocking with 2% BSA PBS-0.05% Tween 20 (PBS-T) solution, 1 μg/mL of the recombinant human proteins (VEGF-A121, VEGF-A165, PlGF-1, PlGF-2, PDGF-BB or FGF-2) or 10 μg/mL of biotinylated heparin (Sigma-Aldrich) were added. Bound GF was detected with biotinylated antibodies for human VEGF, PlGF, PDGF-BB, or FGF-2 (R&D Systems). The antibodies were detected by streptavidin-HRP (R&D Systems).
For orientation: An ELISA detects its analyte on a solid surface through an enzyme-linked reagent.

Experiment [2] concerns the target T2, PDGF-BB (Homo sapiens, UniProt P01127).
T2 construct: All growth factors (GFs) and chemokines were purchased in their mature forms; purchased PeproTech; host or cells: Escherichia coli
The experiment is described as above. The settings on record: plate coated with LG domain protein or peptide, 1 μg/mL GF, vs BSA-coated wells. The protocol:
as §1

The target of experiment [3] is T1, VEGF-A165. Nature of the experiment: Surface plasmon resonance, laminin against GF. The settings on record: SPR; laminin protein immobilized on chip, GF flowed; Langmuir binding kinetics. As to the method:
(§2) SPR analysis was performed as described previously^2. In brief, measurements were made with a Biacore 3000 SPR system (GE Healthcare). Laminin-521 or laminin α32928-3150 was immobilized via amine coupling on a C1 chip (GE Healthcare) for ˜2000 or ˜1000 resonance units (RU), respectively, according to the manufacturer's instructions. VEGF-A165, PDGF-BB, or PlGF-2 was flowed at increasing concentrations in the running buffer at 20 μL/min. The sensor chip was regenerated with 50 mM NaOH for every cycle. Specific bindings of GFs to laminin were calculated by comparison to a non-functionalized channel used as a reference. Experimental results were fitted with Langmuir binding kinetics using BIAevaluation software (GE Healthcare).
Background: Surface plasmon resonance follows binding to a sensor surface in real time, without labels.

Experiment [4] deals with T2, PDGF-BB. In words: Surface plasmon resonance, laminin against GF. The settings on record: SPR; laminin protein immobilized on chip, GF flowed; Langmuir binding kinetics. The protocol: as §2
Experiment [5] deals with T3, PlGF-1 (Homo sapiens, UniProt P49763).
T3 sequence (P49763 19-149 isoform P49763-2 limits assumed): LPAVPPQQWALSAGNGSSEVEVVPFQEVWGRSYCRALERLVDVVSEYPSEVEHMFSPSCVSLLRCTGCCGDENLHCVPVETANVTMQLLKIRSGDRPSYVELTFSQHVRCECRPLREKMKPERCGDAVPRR
Nature of the experiment: GF binding to recombinant laminin LG domain protein and synthesized laminin HBD peptides (ELISA). As to conditions: plate coated with LG domain protein or peptide, 1 μg/mL GF, vs BSA-coated wells. The arrangement: All growth factors (GFs) and chemokines were purchased in their mature forms; purchased PeproTech; host or cells: Escherichia coli. The protocol:
as §1

Experiment [6] addresses FGF-2 (Homo sapiens, UniProt P09038). Described as above. As to conditions: plate coated with LG domain protein or peptide, 1 μg/mL GF, vs BSA-coated wells. The arrangement: All growth factors (GFs) and chemokines were purchased in their mature forms; purchased PeproTech; host or cells: Escherichia coli. As to the method: as §1
Experiment [7] addresses T4, VEGF-A121 (Homo sapiens, UniProt P15692).
T4 sequence (P15692 27-147 isoform P15692-9 limits assumed): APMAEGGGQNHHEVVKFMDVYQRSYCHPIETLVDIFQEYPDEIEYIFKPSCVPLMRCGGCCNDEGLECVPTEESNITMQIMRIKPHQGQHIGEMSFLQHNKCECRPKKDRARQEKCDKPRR
The experiment is described as above. Also noted: All growth factors (GFs) and chemokines were purchased in their mature forms; purchased PeproTech; host or cells: Escherichia coli. As to conditions: plate coated with LG domain protein or peptide, 1 μg/mL GF, vs BSA-coated wells. The protocol:
as §1

For experiment [8], the target named is T5, PlGF-2 (Homo sapiens, UniProt P49763).
T5 sequence (P49763 19-170 isoform P49763-3 limits assumed): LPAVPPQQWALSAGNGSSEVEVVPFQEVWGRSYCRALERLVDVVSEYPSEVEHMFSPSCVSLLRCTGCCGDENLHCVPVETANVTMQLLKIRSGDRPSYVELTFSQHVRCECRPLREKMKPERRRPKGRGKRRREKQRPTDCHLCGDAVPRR
The experiment is described as above. Also noted: All growth factors (GFs) and chemokines were purchased in their mature forms; purchased PeproTech; host or cells: Escherichia coli. As to conditions: plate coated with LG domain protein or peptide, 1 μg/mL GF, vs BSA-coated wells. The protocol: as §1

FGF-2, sequence (P09038 143-288): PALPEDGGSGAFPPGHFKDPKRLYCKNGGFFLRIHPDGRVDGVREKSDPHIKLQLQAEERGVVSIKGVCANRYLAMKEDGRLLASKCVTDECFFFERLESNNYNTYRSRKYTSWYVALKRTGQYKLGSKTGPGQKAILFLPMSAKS
T2 sequence (P01127 82-190 limits assumed): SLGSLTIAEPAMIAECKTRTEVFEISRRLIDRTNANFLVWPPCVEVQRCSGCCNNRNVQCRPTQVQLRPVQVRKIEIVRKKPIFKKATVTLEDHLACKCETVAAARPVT

B1: α32928-3150: recombinant human laminin alpha 3 LG domain Ser2928-Cys3150 (linker domain and LG4 domain), 6 His (protein)
chain: HHHHHHSLNKPPFLMLLKGSTRFNKTKTFRINQLLQDTPVASPRSVKVWQDACSPLPKTQANHGALQFGDIPTSHLLFKLPQELLKPRSQFAVDMQTTSSRGLVFHTGTKNSFMALYLSKGRLVFALGTDGKKLRIKSKEKCNDGKWHTVVFGHDGEKGRLVVDGLRAREGSLPGNSTISIRAPVYLGSPPSGKPKSLPTNSFVGCLKNFQLDSKPLYTPSSSFGVSSC
As to B1, the “binding to VEGF-A165” value in experiment [1] is “bound”. In experiment [2], the “binding to PDGF-BB” value was “bound”. The equilibrium dissociation constant (Kd) in experiment [3] came to 1.2 nM; in experiment [4], 10.2 nM. Also, the “binding to PlGF-1” value in experiment [5] is listed as “did not show any binding”. In addition, the “binding to FGF-2” value in experiment [6] is listed as “bound”. Also, in experiment [7], the “binding to VEGF-A121” value is on record as “did not show any binding”. Besides, the “binding to PlGF-2” value in experiment [8] was “bound”.

B2: α53026-3482: laminin alpha 5 LG domain recombinant protein (LD BioPharma) (protein)
chain: AIQVFLLGGSRKRVLVRVERATVYSVEQDNDLELADAYYLGGVPPDQLPPSLRRLFPTGGSVRGCVKGIKALGKYVDLKRLNTTGVSAGCTADLLVGRAMTFHGHGFLRLALSNVAPLTGNVYSGFGFHSAQDSALLYYRASPDGLCQVSLQQGRVSLQLLRTEVKTQAGFADGAPHYVAFYSNATGVWLYVDDQLQQMKPHRGPPPELQPQPEGPPRLLLGGLPESGTIYNFSGCISNVFVQRLLGPQRVFDLQQNLGSVNVSTGCAPALQAQTPGLGPRGLQATARKASRRSRQPARHPACMLPPHLRTTRDSYQFGGSLSSHLEFVGILARHRNWPSLSMHVLPRSSRGLLLFTARLRPGSPSLALFLSNGHFVAQMEGLGTRLRAQSRQRSRPGRWHKVSVRWEKNRILLVTDGARAWSQEGPHRQHQGAEHPQPHTLFVGGLPASSHSSKLP
For B2, the “binding to VEGF-A165” value in experiment [1] was “bound”. The “binding to PDGF-BB” value in experiment [2] was “bound”. Also, in experiment [5], the “binding to PlGF-1” value was “did not show any binding”. Besides, in experiment [6], the “binding to FGF-2” value is listed as “bound”. The “binding to VEGF-A121” value in experiment [7] was “did not show any binding”. Besides, in experiment [8], the “binding to PlGF-2” value was “bound”.

B3: α4826-1816: laminin alpha 4 LG domain recombinant protein (R&D systems) (protein)
chain: QVSMMFDGQSAVEVHSRTSMDDLKAFTSLSLYMKPPVKRPELTETADQFILYLGSKNAKKEYMGLAIKNDNLVYVYNLGTKDVEIPLDSKPVSSWPAYFSIVKIERVGKHGKVFLTVPSLSSTAEEKFIKKGEFSGDDSLLDLDPEDTVFYVGGVPSNFKLPTSLNLPGFVGCLELATLNNDVISLYNFKHIYNMDPSTSVPCARDKLAFTQSRAASYFFDGSGYAVVRDITRRGKFGQVTRFDIEVRTPADNGLILLMVNGSMFFRLEMRNGYLHVFYDFGFSGGPVHLEDTLKKAQINDAKYHEISIIYHNDKKMILVVDRRHVKSMDNEKMKIPFTDIYIGGAPPEILQSRALRAHLPLDINFRGCMKGFQFQKKDFNLLEQTETLGVGYGCPEDSLISRRAYFNGQSFIASIQKISFFDGFEGGFNFRTLQPNGLLFYYASGSDVFSISLDNGTVIMDVKGIKVQSVDKQYNDGLSHFVISSVSPTRYELIVDKSRVGSKNPTKGKIEQTQASEKKFYFGGSPISAQYANFTGCISNAYFTRVDRDVEVEDFQRYTEKVHTSLYECPIESSPLFLLHKKGKNLSKPKASQNKKGGKSKDAPSWDPVALKLPERNTPRNSHCHLSNSPRAIEHAYQYGGTANSRQEFEHLKGDFGAKSQFSIRLRTRSSHGMIFYVSDQEENDFMTLFLAHGRLVYMFNVGHKKLKIRSQEKYNDGLWHDVIFIRERSSGRLVIDGLRVLEESLPPTEATWKIKGPIYLGGVAPGKAVKNVQINSIYSFSGCLSNLQLNGASITSASQTFSVTPCFEGPMETGTYFSTEGGYVVLDESFNIGLKFEIAFEVRPRSSSGTLVHGHSVNGEYLNVHMKNGQVIVKVNNGIRDFSTSVTPKQSLCDGRWHRITVIRDSNVVQLDVDSEVNHVVGPLNPKPIDHREPVFVGGVPESLLTPRLAPSKPFTGCIRHFVIDGHPVSFSKAALVSGAVSINSCPAA
For the molecule B3, in experiment [1], the “binding to VEGF-A165” value was “bound”. In addition, the “binding to PDGF-BB” value in experiment [2] is on record as “bound”. The “binding to PlGF-1” value in experiment [5] was “did not show any binding”. In experiment [6], the “binding to FGF-2” value is given as “bound”. The “binding to VEGF-A121” value in experiment [7] is “did not show any binding”. Further, in experiment [8], the “binding to PlGF-2” value is “bound”.
